# According to article doi:10.1101/2025.09.11.675134, “Biodistribution-Driven Discovery Identifies a Glycosidase-Cleavable Linker to Reprogram Radiotheranostics” (bioRxiv, 2025):
# Where two headings read alike, the source gives them in different places.
# Key:
# [1] = tested on: AR42J xenografts; experiment: Dosimetry estimates of 225Ac-labeled variants from biodistribution data; format: in vivo, athymic nu/nu mice
# From the text: To evaluate the organ-level radiation absorbed dose resulting from different DOTA-TATE derivatives, we calculated the total effective dose per unit of injected activity (Eff Dose/IA, mSv/MBq) for ^225Ac-labeled variants based on biodistribution data in AR42J xenograft-bearing mice (Tables S5).
# Estimated absorbed doses for individual organs for ^225Ac- and ^86Y-labeled DOTA-TATE variants were derived from residence times calculated using %IA/g data from biodistribution studies. The time–activity curves incorporated data from both radionuclides to provide complete coverage of early and late time points. Details of the dosimetry methodology, including time–activity curve construction, integration approach, decay assumptions, and conversion to effective dose, are provided in the Supplementary Information.
# Dosimetry: The dosimetry was calculated by measuring the residence time per gram for each organ using the percent injected activity per gram (%IA/g) data collected for the biodistribution study. Because two biodistribution data sample groups were collected, one for the 86Y and the other for the 225Ac variant of the three DOTA-TATE variants (DOTA-TATE, DOTA-MVK(ε)- TATE, and DOTA-β-Gal-TATE) the %IA/g time activity curves (TAC) of the 86Y variant were merged with the 225Ac TACs. This was possible because of the difference in half lives between 86Y and 225Ac being 14.74 and 237.8 hours respectively setting the measurement time points to be 1, 4 and 24 hours for the 86Y ligands and 24, 96 hours for 225Ac. The full time activity curve is thus made up of the 1 and 4 hour time points of the 86Y %IA/g data points, an average of the common 24 hour time point of the 86Y and 225Ac %IA/g data points and the last 96 hour %IA/g time point of the 225Ac samples. The full 4 time points of 1, 4, 24, and 96 hours making up the […]
# from which the residence times were calculated.
# The integration of the TAC was performed using trapezoidal interpolation between time points.
# The first time point assumed constant activity and a decay curve with the half life of the radioisotope was used to estimate activity beyond 96 hours. The average %IA/g was used for each tissue sample for each time point and the resulting standard deviation of the average was then used as the error estimate per time point to propagate through the residence time calculation.
# Using the residence time for each TAC, the dose was calculated by looking up the dose per decay for each alpha, beta (positron and electron from nuclear beta decay) and electron emission listed in the nuclear data sheets provided by the Brookhaven National Laboratory National Nuclear Data Center. Since the 225Ac decays via a complicated decay chain, it is assumed that the dose from the daughters remains in the tissue assuming no biological dissemination once the 225Ac decays breaking the bonds of the DOTA-TATE ligand. The following mean dose per decay were used. For 225Ac, 27.58MeV/Bq-s for alpha emissions, 1.33MeV/Bq-s for beta plus electron emissions. For 86Y, 0.219 MeV/Bq-s for beta and electron emissions. Gamma emissions were ignored because of the small size of the tissue samples have small gamma absorption effects which would contribute negligibly to the dose calculation. Furthermore, dosimetry estimate […]
# inter organ activity can be calculated(62).
# To estimate the effective dose in mSv/MBq, a radiological factor of 5 was used to multiply the dose calculated from the alpha ionizations while a factor of 1 was used for the beta and electron ionizations to convert from mGy/MBq to mSv/MBq (63, 64).
# [2] = Ex vivo biodistribution of 225Ac-labeled variants in AR42J tumor-bearing mice; conditions: athymic nu/nu, mouse, total radioactivity, 225Ac-labeled; for tissue uptake at 24 h / tissue uptake at 96 h: AR42J tumor-bearing mice; for tissue uptake at 96 h: 4 days post-injection
# Experimental: Prior to conducting targeted alpha-particle therapy studies using three ^225Ac-labeled variants (Fig. S17) in AR42J xenograft-bearing mice, we first assessed their in vivo pharmacokinetics through ex vivo biodistribution studies at 24 h post-injection (Fig. 5A; Tables S4). […]
# For studies involving three variants (DOTA -TATE, DOTA-MVK(ε)-TATE, and DOTA-β-Gal-TATE), AR42J cells (5 × 10^6 cells per mouse) were subcutaneously inoculated into the right shoulder of the mice. Tumors were allowed to grow for 3 weeks, reaching a volume of 100 –200 mm³ before being used in subsequent experiments. […]
# All samples […]
# were weighed and counted on a gamma counter (2480 Wizard 3, Perkin Elmer Inc., Waltham, MA, USA). Results are presented as percentage of injected activity per gram (%IA/g) and mean values ± standard deviations. […]
# Prior to conducting alpha particle therapy, biodistribution studies with 225Ac-labeled DOTA - TATE variants (117 – 163 kBq, 1 μg) were performed at 24 hours and 4 days post -injection in athymic nu/nu mice bearing AR42J tumors (n = 4 – 5). Mice were euthanized by CO 2 asphyxiation, and 10 tissues, including tumors, were collected. All samples were weighed and counted on a gamma counter after equilibration for 12 hours. Results are presented as %IA/g and mean values ± standard deviations.
# [3] = Histopathology (H&E) after two-cycle therapy; format: in vivo, athymic nu/nu mice; conditions: kidney H&E after two-cycle regimen, n = 6
# Experimental: To further assess tissue-level toxicity at the conclusion of the two-cycle therapy study, kidneys, livers, spleens, and tumors from representative mice were collected and evaluated histologically using hematoxylin and eosin (H&E) staining. Microscopic pathology was assessed and recorded in the MHL Pathology Database (Zaphod) according to a standardized five-point grading scale (normal, minimal, mild, moderate, marked). Terminology and criteria for pathological findings were consistent with the INHAND (International Harmonization of Nomenclature and Diagnostic Criteria) guidelines developed by the Society of Toxicologic Pathology.
# At the conclusion of the two-cycle therapy study, kidneys, livers, spleens, and tumors from representative mice were collected and processed for histological evaluation using hematoxylin and eosin (H&E) staining. Microscopic pathology was assessed and recorded in the MHL Pathology Database (Zaphod) using a standardized five-point ordinal grading system (normal, minimal, mild, moderate, marked). Terminology and diagnostic criteria were consistent with the International Harmonization of Nomenclature and Diagnostic Criteria (INHAND) guidelines established by the Society of Toxicologic Pathology (https://www.toxpath.org/inhand.asp)([57]).
# [4] = 225Ac-labeled, AR42J xenografts, from biodistribution time-activity curves, alpha factor 5, mean, n = 4–5
# [5] = 225Ac-labeled, dosimetry estimate
# [6] = absorbed-dose estimate at 148 kBq per mouse
compound,measurement,setting,value
"C[C@@H](O)[C@H](NC(=O)[C@@H]1CSSC[C@H](NC(=O)[C@@H](Cc2ccccc2)NC(=O)CCCC(=O)Nc2cc(COC(=O)N(C)CCNC(=O)CN3CCN(CC(=O)O)CCN(CC(=O)O)CCN(CC(=O)O)CC3)ccc2O[C@@H]2O[C@H](CO)[C@H](O)[C@H](O)[C@H]2O)C(=O)N[C@@H](Cc2ccc(O)cc2)C(=O)N[C@H](Cc2c[nH]c3ccccc23)C(=O)N[C@@H](CCCCN)C(=O)N[C@@H]([C@@H](C)O)C(=O)N1)C(=O)O [^225Ac-DOTA-β-Gal-TATE, metal not drawn]","Total effective dose per injected activity, Femur",[1]; [4],7.96E+04 mSv/MBq
same,"Total effective dose per injected activity, Heart",[1]; [4],1.20E+04 mSv/MBq
same,"Total effective dose per injected activity, Intestine",[1]; [4],2.87E+04 mSv/MBq
same,"Total effective dose per injected activity, Kidney",[1]; [4],1.56 × 10^5 mSv/MBq
same,"Total effective dose per injected activity, Liver",[1]; [4],1.34E+05 mSv/MBq
same,"Total effective dose per injected activity, Lung",[1]; [4],1.91E+04 mSv/MBq
same,"Total effective dose per injected activity, Muscle",[1]; [4],1.02E+04 mSv/MBq
same,"Total effective dose per injected activity, Spleen",[1]; [4],3.37E+04 mSv/MBq
same,"Total effective dose per injected activity, Tumor",[1]; [4],1.06 × 10^6 mSv/MBq
same,"Total effective dose per injected activity, Blood","[1]; 225Ac-labeled, AR42J xenografts, from merged 86Y/225Ac time-activity curves (1, 4, 24, 96 h), alpha factor 5, mean, n = 4–5",3.93E+03 mSv/MBq
same,Tumor dose higher than that of 225Ac-DOTA-MVK(ε)-TATE,[1]; [5],1.59 fold
same,Tumor dose higher than that of 225Ac-DOTA-TATE,[1]; [5],2.46 fold
same,Absorbed dose to kidney,[1]; [6],4.8 Gy
same,Absorbed dose to tumor,[1]; [6],32.5 Gy
same,Reduction of kidney dose versus 225Ac-DOTA-MVK(ε)-TATE,[1]; [6],~15%
same,tissue uptake at 24 h,"[2]; iv, 1 ug, 24 h post-injection, ex vivo, mean (± SD), n = 4–5, read-out: Kidney uptake",0.89 ± 0.08 %ID/g
same,tissue uptake at 24 h,"[2]; iv, 1 ug, 24 h post-injection, ex vivo, mean (± SD), n = 4–5, read-out: Liver uptake",0.89 ± 0.49 %ID/g
same,tissue uptake at 24 h,"[2]; iv, 1 ug, 24 h post-injection, ex vivo, mean (± SD), n = 4–5, read-out: Tumor uptake",8.22 ± 1.84 %ID/g
same,tissue uptake at 24 h,"[2]; iv, 1 ug, 24 h post-injection, ex vivo, mean, n = 4–5, read-out: Femur uptake",0.48 %ID/g
same,tissue uptake at 24 h,"[2]; iv, 1 ug, 24 h post-injection, ex vivo, mean, n = 4–5, read-out: Intestine uptake",0.17 %ID/g
same,tissue uptake at 24 h,"[2]; iv, 1 ug, 24 h post-injection, ex vivo, mean, n = 4–5, read-out: Spleen uptake",0.47 %ID/g
same,tissue uptake at 24 h,"[2]; iv, 1 ug, 24 h post-injection, i.v. 1 μg (117–163 kBq), ex vivo gamma counting, mean, n = 4–5, read-out: Blood uptake",0.04 %ID/g
same,tissue uptake at 96 h,"[2]; iv, 1 ug, ex vivo, mean, n = 4–5, read-out: Blood uptake",0.03 %ID/g
same,tissue uptake at 96 h,"[2]; iv, 1 ug, ex vivo, mean, n = 4–5, read-out: Femur uptake",0.42 %ID/g
same,tissue uptake at 96 h,"[2]; iv, 1 ug, ex vivo, mean, n = 4–5, read-out: Intestine uptake",0.09 %ID/g
same,tissue uptake at 96 h,"[2]; iv, 1 ug, ex vivo, mean, n = 4–5, read-out: Kidney uptake",0.28 %ID/g
same,tissue uptake at 96 h,"[2]; iv, 1 ug, ex vivo, mean, n = 4–5, read-out: Liver uptake",0.5 %ID/g
same,tissue uptake at 96 h,"[2]; iv, 1 ug, ex vivo, mean, n = 4–5, read-out: Muscle uptake",0.22 %ID/g
same,tissue uptake at 96 h,"[2]; iv, 1 ug, ex vivo, mean, n = 4–5, read-out: Spleen uptake",0.22 %ID/g
same,tissue uptake at 24 h,"[2]; 24 h post-injection, ex vivo, mean, n = 4–5, read-out: Heart uptake",0.1 %ID/g
same,tissue uptake at 24 h,"[2]; 24 h post-injection, ex vivo, mean, n = 4–5, read-out: Lung uptake",0.1 %ID/g
same,tissue uptake at 24 h,"[2]; 24 h post-injection, ex vivo, mean, n = 4–5, read-out: Muscle uptake",0.1 %ID/g
same,tissue uptake at 96 h,"[2]; ex vivo, mean (± SD), n = 4–5, read-out: Tumor uptake",2.74 %ID/g
same,tissue uptake at 96 h,"[2]; ex vivo, mean, n = 4–5, read-out: Heart uptake",0.13 %ID/g
same,tissue uptake at 96 h,"[2]; ex vivo, mean, n = 4–5, read-out: Lung uptake",0.11 %ID/g
same,tissue to tissue ratio at 24 h,"[2]; AR42J xenografts, 24 h post-injection, ex vivo, mean ± SD, n = 4, read-out: Tumor-to-kidney (T/K) ratio",9.12 ± 1.31
same,"Tubular damage, percentage of mice with grade 0","[3]; 0–4+ scale (normal, minimal, mild, moderate, marked)",100%
same,"Glomerulopathy, percentage of mice with grade 0",[3]; 0–4+ scale,67%
